Measurements published in patent US20230265185A1 (NATIONAL RESEARCH COUNCIL OF CANADA, published 2023).
Blank lines part the entries; values can stand above or below the binder they belong to.

Legend:
[1] = biological target: T1, hCD22 fragment Bin 4, IVR4 (aa303-405), displayed on yeast cells (human, UniProt P20273 322-424); assay: yeast display cell ELISA
T1 construct: Range is counted on the mature ECD, not on the UniProt entry; on P20273 it would be 322-424 (my arithmetic); also called CD22 Sub-Domain 4; not shown: Aga2-HA display fusion partner of vector pPNL6; MYC tag
T1 sequence (looked up): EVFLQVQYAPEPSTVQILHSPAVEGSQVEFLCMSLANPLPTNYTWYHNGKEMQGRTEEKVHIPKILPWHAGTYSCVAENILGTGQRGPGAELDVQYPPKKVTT
Experimental: (§1) The YSD vector (pPNL6) was from The Pacific Northwest National Laboratory, USA. […] The HRP activity was assayed with substrate TMB (tetramethyl benzidine) according to the manufacture’s conditions and read at OD₄₅₀.
(§2) The wells that gave rise to OD₄₅₀ above 0.25 were highlighted, indicating significant antibody-antigen interactions. All the sdAbs tested except hCd22_1ug-14 were assigned to specific Bin(s).

[2] = biological target: T2, hCD22 fragment Bin 1, IVR1 (aa1-135), displayed on yeast cells (human, UniProt P20273 20-154); assay: yeast display cell ELISA
T2 construct: range 1-135; Range is counted on the mature ECD, not on the UniProt entry; on P20273 it would be 20-154 (my arithmetic); also called CD22 Sub-Domain 1; not shown: Aga2-HA display fusion partner of vector pPNL6; MYC tag
T2 sequence (looked up): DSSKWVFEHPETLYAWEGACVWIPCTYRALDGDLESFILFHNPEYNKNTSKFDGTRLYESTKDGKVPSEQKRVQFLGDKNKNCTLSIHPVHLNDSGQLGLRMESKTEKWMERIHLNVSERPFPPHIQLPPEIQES
Experimental: as §1, §2

[3] = biological target: T3, hCD22 fragment Bin 3, IVR3 (aa211-317), displayed on yeast cells (human, UniProt P20273 230-336); assay: yeast display cell ELISA
T3 construct: Range is counted on the mature ECD, not on the UniProt entry; on P20273 it would be 230-336 (my arithmetic); not shown: Aga2-HA display fusion partner of vector pPNL6; MYC tag
T3 sequence (looked up): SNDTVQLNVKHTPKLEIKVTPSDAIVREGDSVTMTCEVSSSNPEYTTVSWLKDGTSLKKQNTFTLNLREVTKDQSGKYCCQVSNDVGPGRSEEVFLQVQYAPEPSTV
Experimental: as §1, §2

[4] = biological target: T4, hCD22 fragment Bin 7, IVR7 (aa561-668), displayed on yeast cells (human, UniProt P20273 580-687); assay: yeast display cell ELISA
T4 construct: range 561-668; Range is counted on the mature ECD, not on the UniProt entry; on P20273 it would be 580-687 (my arithmetic); also called CD22 Sub-Domain 7; not shown: Aga2-HA display fusion partner of vector pPNL6; MYC tag
T4 sequence (looked up): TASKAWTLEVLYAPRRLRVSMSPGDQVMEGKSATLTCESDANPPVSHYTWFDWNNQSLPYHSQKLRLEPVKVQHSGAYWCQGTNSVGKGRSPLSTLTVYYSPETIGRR
Experimental: as §1, §2

[5] = biological target: T4, hCD22 fragment Bin 7, IVR7 (aa561-668), …; assay: yeast display cell ELISA, heat denatured cells (80 C, 30 min)
Experimental: as §1
(§3) Table 7 depicts the assessment of the nature of the epitopes of CD22 sdAbs to determine if the epitopes for the sdAbs are continuous (linear) or non-continuous (conformational). […] The binding of each sdAb to native and denatured CD22 fragments was measured as OD₄₅₀, and the ratio of the binding to denatured CD22 to non-denatured CD22 was calculated, with the ratio ≥ 0.5 indicative linear (L), and the ratio < 0.5 indicative of conformational (C) epitopes.

[6] = biological target: T5, hCD22 fragment Bin 6, IVR6 (aa476-575), displayed on yeast cells (human, UniProt P20273 495-594); assay: yeast display cell ELISA
T5 construct: range 476-575; Range is counted on the mature ECD, not on the UniProt entry; on P20273 it would be 495-594 (my arithmetic); also called CD22 Sub-Domain 6; not shown: Aga2-HA display fusion partner of vector pPNL6; MYC tag
T5 sequence (looked up): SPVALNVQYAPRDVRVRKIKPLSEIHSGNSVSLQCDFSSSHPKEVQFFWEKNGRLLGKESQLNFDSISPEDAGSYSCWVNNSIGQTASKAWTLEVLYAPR
Experimental: as §1, §2

[7] = biological target: T4, hCD22 fragment Bin 7, IVR7 (aa561-668), …; assay: yeast display cell ELISA, OD on denatured over non-denatured CD22 fragment
Experimental: as §1, §3

[8] = biological target: T4, hCD22 fragment Bin 7, IVR7 (aa561-668), …; assay: yeast display cell ELISA, biotinylated sdAb 250 nM
Experimental: as §1, §2

[9] = biological target: T4, hCD22 fragment Bin 7, IVR7 (aa561-668), …; assay: yeast display cell ELISA, native cells
Experimental: as §1, §3

[10] = biological target: T5, hCD22 fragment Bin 6, IVR6 (aa476-575), …; assay: yeast display cell ELISA, heat denatured cells (80 C, 30 min)
Experimental: as §1, §3

[11] = biological target: T5, hCD22 fragment Bin 6, IVR6 (aa476-575), …; assay: yeast display cell ELISA, OD on denatured over non-denatured CD22 fragment
Experimental: as §1, §3

[12] = biological target: T5, hCD22 fragment Bin 6, IVR6 (aa476-575), …; assay: yeast display cell ELISA, biotinylated sdAb 250 nM
Experimental: as §1, §2

[13] = biological target: T5, hCD22 fragment Bin 6, IVR6 (aa476-575), …; assay: yeast display cell ELISA, native cells
Experimental: as §1, §3

[14] = biological target: T1, hCD22 fragment Bin 4, IVR4 (aa303-405), …; assay: yeast display cell ELISA, OD on denatured over non-denatured CD22 fragment
Experimental: as §1, §3

B1: hCD22pas-32 (VHH)
VHH: QVQLVESGGGLVQAGGSLRLSCAVSGRIFRSYVLGWFRQAPGKERELVARIGWSDTYYADSVKGRFTISRDNAKNTVDLQMNSLKPEDTAVYYCAANSPPYGPQRDEFGYWGQGTQVTVSS
modifications: single biotin at the VHH C-terminal (biotinylation signal sequence)
notes: llama VHH, expressed in E. coli TG1, IMAC purified, monomeric SEC fraction; also called VHH # 15; 6-hCD22 pas-32
binding result [1]: no binding (tested: OD450 not above 0.25; sdAb 250 nM)
binding result [2]: no binding (tested: OD450 not above 0.25; sdAb 250 nM)
binding result [3]: no binding (tested: OD450 not above 0.25; sdAb 250 nM)
binding result [4]: no binding (tested: OD450 not above 0.25; sdAb 250 nM)

B3: hCD22pas-64 (VHH)
VHH: QVQLVESGGGLVQAGGSLRLSCAASGSTFSLNTMAWYRQAPGNQREYVAAASSDGYTNYADSVRGRFTISRDNDKNTMYLQMNSLRPEDTAVYYCTWGTGRFADYIYWGQGTQVTVSS
modifications: single biotin at the VHH C-terminal (biotinylation signal sequence)
notes: llama VHH, expressed in E. coli TG1, IMAC purified, monomeric SEC fraction; also called VHH # 25; 7-hCD22 pas-64
Heat Inactivated CD22 OD [10]: 2.04 OD450
binding result [1]: no binding (tested: OD450 not above 0.25; sdAb 250 nM)
binding result [2]: no binding (tested: OD450 not above 0.25; sdAb 250 nM)
binding result [3]: no binding (tested: OD450 not above 0.25; sdAb 250 nM)
binding result [4]: no binding (tested: OD450 not above 0.25; sdAb 250 nM)
CD22 Ratio (D/ND) [11]: 0.684
OD450 [12]: 1.38 OD450
Non denatured CD22 OD [13]: 2.98 OD450

B6: hCD22pas-24 (VHH)
VHH: QVQLVESGGGLVQAGGSLRLSCSASGITSSINSMGWHRQAPGKQRELVASIGRGGSGSTKYADSGKGRFLISRDNNKNILFLEMNSLKPEDTADYYCLEVTTDLSSYWGRGTQVTVSS
modifications: single biotin at the VHH C-terminal (biotinylation signal sequence)
notes: llama VHH, expressed in E. coli TG1, IMAC purified, monomeric SEC fraction; also called VHH # 26; 8-hCD22 pas-24
Heat Inactivated CD22 OD [5]: 2.11 OD450
binding result [1]: no binding (tested: OD450 not above 0.25; sdAb 250 nM)
binding result [2]: no binding (tested: OD450 not above 0.25; sdAb 250 nM)
binding result [3]: no binding (tested: OD450 not above 0.25; sdAb 250 nM)
CD22 Ratio (D/ND) [7]: 0.603
OD450 [8]: 2.89 OD450
Non denatured CD22 OD [9]: 3.5 OD450

Further lines, with some results ahead:

Heat Inactivated CD22 OD [5]: 0.32 OD450
CD22 Ratio (D/ND) [7]: 0.091
OD450 [8]: 0.75 OD450
Non denatured CD22 OD [9]: 3.5 OD450
B2: hCD221ug-10 (VHH)
VHH: QVQLVESGGGLVQAGGSLSVSCTASESTFSIMMGWFRQAPGKQREMVAVINSAGSTNYADSAEGRFTISRDLAKKTVSLQMNSLKPEDTAVYYCYVDGYFGQGTQVTVSS
modifications: single biotin at the VHH C-terminal (biotinylation signal sequence)
notes: llama VHH, expressed in E. coli TG1, IMAC purified, monomeric SEC fraction; also called VHH # 23; 5-hCD22 1ug-10
binding result [1]: no binding (tested: OD450 not above 0.25; sdAb 250 nM)
binding result [2]: no binding (tested: OD450 not above 0.25; sdAb 250 nM)
binding result [6]: no binding (tested: OD450 not above 0.25; sdAb 250 nM)
binding result [3]: no binding (tested: OD450 not above 0.25; sdAb 250 nM)

Heat Inactivated CD22 OD [10]: 0.272 OD450
CD22 Ratio (D/ND) [14]: 0.557
CD22 Ratio (D/ND) [11]: 0.6
OD450 [12]: 0.433 OD450
Non denatured CD22 OD [13]: 0.453 OD450
B4: hCD221ug-13 (VHH)
VHH: QVQLVESGGGLVQAGDSLRLSCAGSGGSFSSVTMAWFRQAPGKDREFVAAITWSSPSTYYADSVKGRFTISRDNAKNTVYLQMNSLKPEDTAVYYCAGGRTGRGTSADTDEYNYWGQGTQVTVSS
modifications: single biotin at the VHH C-terminal (biotinylation signal sequence)
notes: llama VHH, expressed in E. coli TG1, IMAC purified, monomeric SEC fraction; also called VHH # 21; 1-hCD22 1ug-13
binding result [2]: no binding (tested: OD450 not above 0.25; sdAb 250 nM)
binding result [3]: no binding (tested: OD450 not above 0.25; sdAb 250 nM)

Heat Inactivated CD22 OD [5]: 2.33 OD450
CD22 Ratio (D/ND) [7]: 0.665
OD450 [8]: 2.84 OD450
Non denatured CD22 OD [9]: 3.5 OD450
B5: hCD221ug-61 (VHH)
VHH: QVQLVESGGGLVQAGGSLRLSCAASMSSFSQYVMYWYRQAPGKQRELVATITSYSNTNYADSVKGRFTISRDNAKSIAYLQMDSLKPEDTAVYYCNAQYGSTFIRNHWDDWGQGTQVTVSS
modifications: single biotin at the VHH C-terminal (biotinylation signal sequence)
notes: llama VHH, expressed in E. coli TG1, IMAC purified, monomeric SEC fraction; also called VHH # 14; 3-hCD22 1ug-61
binding result [1]: no binding (tested: OD450 not above 0.25; sdAb 250 nM)
binding result [2]: no binding (tested: OD450 not above 0.25; sdAb 250 nM)
binding result [6]: no binding (tested: OD450 not above 0.25; sdAb 250 nM)
binding result [3]: no binding (tested: OD450 not above 0.25; sdAb 250 nM)

Heat Inactivated CD22 OD [10]: 3.5 OD450
CD22 Ratio (D/ND) [11]: 1
OD450 [12]: 2.97 OD450
Non denatured CD22 OD [13]: 3.5 OD450
B7: hCD221ug-36 (VHH)
VHH: EVQLVDSGGGLVQAGGSLRVSCEASGITFSRAAMGWYRQRPGKERERVAVVNSDSSTIYADSVKGRFTISRDNAKNTVYLQMNSLEPEDTAVYYCWSPGFGSYWGQGTQVTVSS
modifications: single biotin at the VHH C-terminal (biotinylation signal sequence)
notes: llama VHH, expressed in E. coli TG1, IMAC purified, monomeric SEC fraction; also called VHH # 22; 4-hCD22 1ug-36
binding result [1]: no binding (tested: OD450 not above 0.25; sdAb 250 nM)
binding result [2]: no binding (tested: OD450 not above 0.25; sdAb 250 nM)
binding result [3]: no binding (tested: OD450 not above 0.25; sdAb 250 nM)
binding result [4]: no binding (tested: OD450 not above 0.25; sdAb 250 nM)

Heat Inactivated CD22 OD [10]: 2.62 OD450
CD22 Ratio (D/ND) [11]: 1.02
OD450 [12]: 2.25 OD450
Non denatured CD22 OD [13]: 2.57 OD450
B8: hCD221ug-80 (VHH)
VHH: QVQLVESGGGLVQPGGSLRLSCTFSGFTLDYYVMVWFRQAPGKEREAVSCITSDGVTYYADSVKGRFTISRDNAKNTVYLQMNRVKPEDTAVYYCAVDKPFYDGGIQYTCPVDFDSWGQGAQVTVSS
modifications: single biotin at the VHH C-terminal (biotinylation signal sequence)
notes: llama VHH, expressed in E. coli TG1, IMAC purified, monomeric SEC fraction; also called VHH # 1; 2-hCD22 1ug-80
binding result [1]: no binding (tested: OD450 not above 0.25; sdAb 250 nM)
binding result [3]: no binding (tested: OD450 not above 0.25; sdAb 250 nM)
